# Test results reported in the nanobody polyreactivity screen of Harvey et al. (2022).
# Experiment: yeast display, Sf9 membrane polyspecificity reagent, FACS + sequencing; frameworks hold sequencing errors
# In short: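 Nanobodies came from a synthetic yeast display library in Saccharomyces cerevisiae BJ5465, induced with galactose for 36–48 hours and stained for 1 hour at 4 °C with 10% biotinylated, detergent-solubilized Sf9 membrane reagent. Cells were enriched on streptavidin microbeads and then FACS-sorted, with low and high (top ~1%) gates set on anti-HA fluorescence for expression and streptavidin fluorescence for reagent binding. Each polyreactivity label reflects the gate a clone came from. Genes were amplified by colony PCR, sequenced by MiSeq 2 × 250 and filtered by CDR length.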
row,Sequence,polyreactivity (PSR sort gate)
1,QVQLVESGGGLVQAGGSLRLSCAASGRIFIYNAMGWYRQAPGKERELVAAISVSGGRTYYADSVKGRFTISRDNAKNTVYLQMNSLKPEDTAVYYCNKVRVGSLRGYWGQGTQVTVSS,high polyreactivity
2,QVQLVESGGGLVQAGGSLRLSCAASGRIFIYNAMGWYRQAPGKETELVAAISSGGDTYYADSVKGRFTISRDNAKNTVYLQMNSLKPEDTAVYYCAARVYRYRGYDSWGQGTQVTVSS,high polyreactivity
3,QVQLVESGGGLVQAGGSLRLSCAASGRIFKGNGMGWYRQAPGKERELVAAISSGGTYYADSVKGRFTISRDNAKNTVYLQMNSLKPEDTAVYYCAAQHRGVQVTFGEYDYWGQGTQVTVSS,low polyreactivity
4,QVQLVESGGGLVQAGGSLRLSCAASGRIFKGYAMGWYRQAPGKERELVAAITISGGSTYYADSVKGRFTISRDNAKNTVYLQMNSLKPEDTAVYYCAARKFVYWYGMEYWGQGSQVTVSS,low polyreactivity
5,QVQLVESGGGLVQAGGSLRLSCAASGRIFKNYAMGWYRQAPGKERELVAAISWSGGRTYYADSVKGRFTISRDYAKNTVYLQMNSLKPEDTAVYYCASAARRGPTSIEPFGYGSWGQGTQVTVSS,high polyreactivity
6,QVQLVESGGGLVQAGGSLRLSCAASGRIFKPYALGWYRPAPGKERELVAALSWTGGRTRYADSVKGRFTISRDNAMNTVYLQMNSLKPEDTAVYYCAAYAIVRSYFIYDYWGQGTQVTVSS,high polyreactivity
7,QVQLVESGGGLVQAGGSLRLSCAASGRIFKRNAMGWYRQAPGKERELVAAISYSGGSTYYADSVKGRFTISRDNAKNTVYLQMNSLKPEDTAVYYCAAKYRPRGKSSWPYRRYDYWGQGTQVTVSS,high polyreactivity
8,QVQLVESGGGLVQAGGSLRLSCAASGRIFKRNTLGWYRQAPGKERELVAAITNSGITYYADSVKGRFTISRDNAKNTVYLQMNSLKPEDTAVYYCAARVIYYYGSGPYDYWGQGTQVTVSS,low polyreactivity
9,QVQLVESGGGLVQAGGSLRLSCAASGRIFKRNVMGWYRQAPGKERELVAAITLRGGSTYYADSVKGRFTISRDNAKNTVYLQMNSLKPEDTAVYYCAAVQGTYYWDDYWGQGTQVTVSS,low polyreactivity
10,QVQLVESGGGLVQAGGSLRLSCAASGRIFKRYVMGWYRQAPGKERELVAAISVRGASTYYADSVKGRFTISRDNAKNTVSLQMNSLKPEDTAVYYCATAGYRLLDYWGQGTQVTVSS,high polyreactivity
11,QVQLVESGGGLVQAGGSLRLSCAASGRIFKSNAMGWYRQAPGKERELVASISRSGSTNYADSVKGRFTLSRDNAKNTVYLQMNSLKPEDTAVYYCAKDPDAKGGGYDYWGQGTQVTVSS,low polyreactivity
12,QVQLVESGGGLVQAGGSLRLSCAASGRIFKSYAMGWYRQAPGKERELVAIIRSSGTTYYADSVKGRFTISRDNAKNTVYLQMNSLKPEDTAVYYCNADGYPLGDKYDYWGQGTQVTVSS,high polyreactivity
13,QVQLVESGGGLVQAGGSLRLSCAASGRIFKSYAMGWYRQAPGKERELVATISISGGSTYYADSVKGRFTISRDNAKNTVYLQMNSLKPEDTAVYYCAADRYGLGDYDYWGQGTQVTVSS,low polyreactivity
14,QVQLVESGGGLVQAGGSLRLSCAASGRIFKSYVMGWYRQAPGKERELVAAISITGGSTYYADSVKGRFTISRDNAKNTVYLQMNSLKPEDTAVYYCAAGRSGQEDDYWGQGTQVTVSS,high polyreactivity
15,QVQLVESGGGLVQAGGSLRLSCAASGRIFKTNAMGWYRQAPGKERELVAAITWSGTSTYYADSVKWRYTISRDNEKITVYLQMNSLKPEDTAVYYCDAKQYARKYGFWGQGTQVTVSS,high polyreactivity
16,QVQLVESGGGLVQAGGSLRLSCAASGRIFKVNTMGWYRQAPGKERELVASIRGGGSTNYADSVKGRFTISRDNAKNTVFLQMNSLKPEDTAVYYCAVGPNSVGNRSYGFDYWGQGTQVTVSS,low polyreactivity

row,Sequence,polyreactivity (PSR sort gate)
1,QVQLVESGGGLVQAGGSLRLSCAASGRIFKVNTMGWYRQAPGKERELVASIRGGGSTNYADSVKGRFTISRDNAKNTVYLQMNSLKPEDTAVYYCAAGTSKPTPIYGYWGQGTQVTVSS,low polyreactivity
2,QVQLVESGGGLVQAGGSLRLSCAASGRIFKVYAMGWYRQAPGKERELVAAINWSTGSTYYADSVKGRFTISRDNAKNTVYLQMNSLKPEDTAVYYCAAKNLYSYDWGQGTQVTVSS,high polyreactivity
3,QVQLVESGGGLVQAGGSLRLSCAASGRIFKVYAMGWYRQAPGKERELVASIRWNTGSTYYADSVKGRFTISRDNAKNSVYLQMNSLKPEDTAVYYCAATDWWGYYYWGQGTQVTVSS,high polyreactivity
4,QVQLVESGGGLVQAGGSLRLSCAASGRIFKWYAMGWSRQAPGKERELVAAITSGGSTYYADSVKGRFTISRDNAKNTVYVQMNSLKPEDTAVYYCNRYGVHRRDDYWGQGTQVTVSS,high polyreactivity
5,QVQLVESGGGLVQAGGSLRLSCAASGRIFKWYAMGWYRQAPGKEREFVAAINWNGDSTHYADSVKGRFTISRDNAKNTVYLQMNSLKPEDTAVYYCNARVFVTRSYYWGQGTQVTVSS,low polyreactivity
6,QVQLVESGGGLVQAGGSLRLSCAASGRIFKYNAMGWYRPAPGKERELVAAISGTGGSTYYADSVKGRFTISRDNAKNTVYLQMNSLKPEDTAVYYCNRRYYGHSTWKYDYWGQGTQVTVSS,high polyreactivity
7,QVQLVESGGGLVQAGGSLRLSCAASGRIFKYYAMGWYRQAPGKERELVAAISARGGSTYYADSVKGRFTISRDNAKNTVYFQMNSLKPEDTAVYYCAAPYLTTQYERMYYWGQGTQVTVSS,high polyreactivity
8,QVQLVESGGGLVQAGGSLRLSCAASGRIFKYYAMGWYRQAPGKERELVAAISASGGSTYYADSVKGRFTISRDNAKNTVYLQMNSLKPEDTAVYYCAAATRRKRIWTATTRSEYWGQGTQVTVSS,high polyreactivity
9,QVQLVESGGGLVQAGGSLRLSCAASGRIFKYYTMGWYRQAPGKERELVAAISRDDSTNYADSVKGRFTISRDNAKNTVYLQMNSLKPEDTAVYYCAKGYHQYAGFYYWGQGTQVTVSS,high polyreactivity
10,QVQLVESGGGLVQAGGSLRLSCAASGRIFKYYVMGWYRQPPGKERELVAGISSSGGSTYYADSVKGRFTISRDNAKNTVYLQMNSLKPEDTAVYYCAADYTFAYYNVKMDYWGQGTQVTVSS,low polyreactivity
11,QVQLVESGGGLVQAGGSLRLSCAASGRIFLFYAMGWYRQAPGKESELVAAISVRGGSTYYADSVKGRFTISRDNAKNTVYLQMNSLKPEDTAVYYCAADYPKTYTSKFNYWGQVTQVTVSS,high polyreactivity
12,QVQLVESGGGLVQAGGSLRLSCAASGRIFLGYAMGWYRQAPGKERELVARITLIGGGTNYADSVKGRFTISRDNAKNTVYLQMNSLKPEDTAVYYCAAKSPLRPWWVGAVSGNYWGQGTQVTVSS,low polyreactivity
13,QVQLVESGGGLVQAGGSLRLSCAASGRIFLGYAMGWYRQAPGKERELVATITWNSDGTYYADSVKGRFTISRDNAKNTVYLQMNSLKPEDTAVYYCATDEGWPWYYYWGQGTQVTVSS,low polyreactivity
14,QVQLVESGGGLVQAGGSLRLSCAASGRIFLHYAMGWYRQAPGKERELVAGITKSGSSTYYADSVKGRFTISRDNAKNTVYLQMNSLKPEDTAVYYCAARKIHHHVYGAWPRYGYWGQGTQVTVSS,high polyreactivity
15,QVQLVESGGGLVQAGGSLRLSCAASGRIFLLYLMGWYRQAPGKERELVADITFSGGSTYYADSVKGRFTISRDNEKHTVYLQMNSLKPEDTAVYYCAARLFAAKYRYGYWGQGTQVTVSS,high polyreactivity
16,QVQLVESGGGLVQAGGSLRLSCAASGRIFLPYAMGWYRQAPGKERELVAGISSGGSTKYADSVKGRFTISRDNAKNTVYLQMNSLKPEDTAVYYCNRRFPIYGSRFGYYYWGQGTQVTVSS,high polyreactivity
